# From article PMC10954734, “Structure of antiviral drug bulevirtide bound to hepatitis B and D virus receptor protein NTCP” (Nature Communications, 2024)
# Biological target: human Na+-taurocholate co-transporting polypeptide (NTCP), detergent-solubilized, 3C-cleaved (human) (UniProt Q14973)
# Sequence (Q14973 whole entry): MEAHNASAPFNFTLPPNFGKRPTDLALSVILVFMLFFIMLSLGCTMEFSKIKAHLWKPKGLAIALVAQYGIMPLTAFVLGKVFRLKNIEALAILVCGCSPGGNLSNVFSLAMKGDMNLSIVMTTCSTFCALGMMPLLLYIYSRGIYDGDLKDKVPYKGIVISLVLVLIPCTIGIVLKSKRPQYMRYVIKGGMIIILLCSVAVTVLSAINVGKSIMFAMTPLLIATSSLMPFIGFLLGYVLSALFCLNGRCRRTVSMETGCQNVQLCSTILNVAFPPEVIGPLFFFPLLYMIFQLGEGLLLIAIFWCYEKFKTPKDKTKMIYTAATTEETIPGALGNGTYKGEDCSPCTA
substance,measurement,value
bulevirtide (BLV) (peptide),"inhibition of 3H-taurocholate transport (1 uM TC, 8 min) into Flp-In T-Rex cells stably expressing NTCP at increasing concentrations of BLV; at high concentrations BLV fully abolished transport",195 nM
